Test system: Flag-PTEN

WW domain containing E3 ubiquitin protein ligase 1 (WWP1)
in vitro ubiquitination of Flag-PTEN (E1, E2, ubiquitin; western blot with anti-PTEN antibody), WWP1 alone: incubation of WWP1 alone only slightly triggered PTEN poly-ubiquitination
in vitro ubiquitination of Flag-PTEN, WWP1 and NEDD4-1 both present: in the presence of both WWP1 and NEDD4-1, PTEN was robustly K27-linked poly-ubiquitinated

Reference: patent publication US20190374506
